Test results as given in the DeepSol protein solubility set.

Assay: soluble on expression in E. coli; label from the status in PepcDB or PDB records
In the case of “MGSDKIHHHHHHMNLKKVVNEIRNFEGILRKIAIKDVVETFDFNDEDYEFDIIVDFGDDAAVIGIDGDNAILLAADGIWGKLLEADPWWAGYCSVLVNCKDIAAMGGKCVGMTNIISIKDKDICREVLKGVKDGVKKFGVPMVGGHTHPDAMCNVLDVSITGIAKKDCILRSDNAKIGDKIIFAYDLVGQIYKSFPLNWDTTTMKSKKLVRAQMDALVQIAENKLANSCKDISNPGAIGTLGMLLEVSRKGGVVDITKIPKPEEIDLIHWLKVYPGSGYVLTAKEENFKEIKDIFEDVEMTAEICGEVIAEKKLYITDGENKEVVFDFEKEFICGC”, the “soluble on expression in E. coli” value is reported as “not soluble”.
With “MESHENPGMFSRLLRLFHRENGDQGETRPRQKEFGILSYEKGRMKSFWGRHVSAGKTSSQSCNITNHMKNMNKLEDMKFYIRKINAEREELFRILDIDMNTDLNYSIRHTHLLKKCNQLKKKVRMLLNENRKLLVEQADQEASFGEEKSSVMRPARTYIPSAKQQQV” the “soluble on expression in E. coli” value was “not soluble”.
With “MNVTSVTSEDGVKEFEKIVVEPEDIEYVEIPADAKNVDLTRHRIKEIGDYSWLTHVEHFSFRWNLIKKIENLDCLTTLTHLEFYDNQITKVENLDSLVNLESLDLSFNRITKIENLEKLTKLKTLFFVHNKITKIEGLDTLTELEYLELGDNRIAKIENLDNNLKLDRLFLGANQIRLIENVDHLKKLTVLSLPANAITVVDNISGLHNLKEIYLAQNGIKYVCGIDEHLPLEILDFNQNRLEKVENIHQLKTLTDFWARGNKLDNWSIMDELVELPQLNSVYLDFNPIASVDTYRGKVIHLLQQITRLDGTQCREHSMLRPPKEEKNETELSRVVLDNPSDDHPTESV” the “soluble on expression in E. coli” value was “not soluble”.
In the case of “MGSDKIHHHHHHMGERTEDYRYVKTQHKIYTALIALLKKRAFDDITVRDLCQAAQVSRSGFYLHFVDKYDLVDSYGRDLVKMGMRLFYANRGNGLETLYTELLTLINEQGDLITLLLSRKGSVEIQNQIKNQLRQNAADNILPYYGIKNQSPVAQRYLIAMTTGAVLSILQEWLDSGKQESPAELVAVMQEQVMPTLQRSQFRL”, the “soluble on expression in E. coli” value is reported as “not soluble”.
With “ISEFDYSARFVLSDGKRKILRYPNPTNSLSSDVYYNGQILGDIWGYKTVGIAQTQEEMNAHLANGGTPNWGTNWGAGDVMYANLDGKEGVNNGSNTLEDHGDLTIIGNNTPRYNFGLTLTGAWKGFDFSVFLQGVMKRDYWLDGPYFWGANGGLWQSTAFKEHMDYWRPEGDPLGANTNAYYPKPYFNTDKNQKVQSGYLQNAAYCRLKNAQIGYTLPKTWTRKAAMESVRVYVSGDNLVTFSGISGVFDPELLGSDWGDGKLYPLQRTISIGLNVNF” the “soluble on expression in E. coli” value was “not soluble”.
For “MGSDKIHHHHHHMILFAGDPHGSYSHLYPFIQEHANVSLIILGDLQLTTSDELDKLAQFCDLWFIHGNHDSKTVSAYEALWGTKWKSRNLHGKVVDIQGIKIAGLGGVFRGQIWMPPNKPLFFDHIHYCQYAPPEKIWRGGIPLRHRTSIFPSDIEALEKQKADILICHEAPKPHPLGFSVINNLATSMQVKHIFHGHHHESFDYTKRPNKNPFKITNVGFRSLCNINGNFLLIGIDDRE”, the “soluble on expression in E. coli” value was “not soluble”.
For “MAHHHHHHMHPPSSGQGLFPRYGGGWMHQFGHVYALQQELLDPNANNWFRAVELWHTARQEGVAMNVSHFTSILRQCVQPGAWAQSLQVLKQMKRENVRPDVVGVGCALAACVEGKHYDEVENIFATFHKTMLLDSVCHLALIRARQESGNAKGAIAAGKQQQADQVPFLPYTYTHLLEACNAEDDAAYAMELVRNMHSEQWVPSQCAMLAIEDLGRRHERLAAFSRPLLSASDKADSALPSFDASRRLLPPEW”, the “soluble on expression in E. coli” value was “not soluble”.
For “MKVKNNAQLLMPREKMLKFGISALTDVELLALFLRTGTRGKDVLTLAKEMLENFGSLYGLLTSEYEQFSGVHGIGVAKFAQLKGIAELARRYYNVRMREESPLLSPEMTREFLQSQLTGEEREIFMVIFLDSQHRVITHSRLFSGTLNHVEVHPREIIREAIKINASALILAHNHPSGCAEPSKADKLITERIIKSCQFMDLRVLDHIVIGRGEYVSFAERGWI”, the “soluble on expression in E. coli” value was “not soluble”.
With “PQRSQRESRHLFIREAKKLCQKEFKRWFILAADVNPLMKYFKDRELPIPTLYLMGDRDYMFIQPVKEMVAAHKLSILREIPNCGHVCNVERPEDFNQHSIEFIKQQSIVA” the “soluble on expression in E. coli” value was “not soluble”.
In the case of “MGSDKIHHHHHHMAEINYQLIDFDNRGDLGLKNEPFELFGRMKIDRLNNNWSYEVEIFTHKRTMAFPDERYHLQEINQNGFALGAYDDSNCVGLAIYQKHWNKYLYLKDLKVNRDHRKLGIGNQLIKEGLRRAVQLGYKGVYAVCQDNNLAACQFYLKIGFQIGGFNDFDYNYTTQSGKSDIYFYLDKNSAR”, the “soluble on expression in E. coli” value is reported as “not soluble”.
With “MSLNCFISSYVRGNFYNRGRISAESLRASDDLIFLNVRPNKDGSLSFENPRIFENGKGVTSWEELIKSVRADVKGTKTKLRLGAASGEWKAMVADEAARVAFAKNIKKILEKNKLDGIDLDFEWAETEKEYEDYSLAILKMREVLGDKYVFSVSLHPVCYKISKEAIAAVDFISYQCYGPSPVRFPMEKYCSDIQMALAYGIPKEKLVAGVPFYGVTKDGSKKTEAYFSFVQDGLITGPAQNEVTYKGDVYVFDGQNNIRAKTRYAMDQQLKGMMSWDLATDMPLNDSRSLFKTMVEELGREGHHHHHH” the “soluble on expression in E. coli” value was “soluble”.
In the case of “MNIVITGGTGLIGRHLIPRLLELGHQITVVTRNPQKASSVLGPRVTLWQGLADQSNLNGVDAVINLAGEPIADKRWTHEQKERLCQSRWNITQKLVDLINASDTPPSVLISGSATGYYGDLGEVVVTEEEPPHNEFTHKLCARWEEIACRAQSDKTRVCLLRTGVVLAPDGGILGKMLPPFRLGLGGPIGSGRQYLAWIHIDDMVNGILWLLDNELRGPFNMVSPYPVRNEQFAHALGHALHRPAILRVPATAIRLLMGESSVLVLGGQRALPKRLEEAGFAFRWYDLEEALADVVR”, the “soluble on expression in E. coli” value is reported as “soluble”.
In the case of “MSLEAKECKVQDILTENKKFIIPSYQRPYSWTVDNAEQLIDDIYKSSQSEENEYFIGSMICINKGQNQYEVVDGQQRLTTLSIIVSELKKIIPIQGIKDDLQKRVLPIDVYSDETDEPRLIVRKKEYDLYKYYILQDSKDYKPEKPSDTELVFISNAETIRDYLLRLSVDELKLLAKYILQNVYIVFVQTDDFASSFRLFNVLNSRGLPLSNADLLKNALFESASTHNKKSEQIESAWSQIEDMVGVRRLDKFLTLHKLSEKKDRDRVLQKGFEAFIENLQQQFDGDAIAMSLMLVNSAKNYTKILENDFEHSSIRRKIASLSNLGVDEWIPPVMAFMNRMARTEDFNLDDFSQFITAFEKVYMHGWLKKQIKSQREMVCYSALVAINNDMSFDSVINQINQHADNSGFIAALDEDLYEPRPNQVNLIKAILLRLDMEQQDESVIKTYTGRITIEHILPQALVNEYWINRFQPQEHVYWLHKIGNLTLISGSKNSEAQHYDFIKKKSIYEKLNSKSSFDLTKDVCNSSEWGLAELKMRHEKMKTQLKKLWLVEGHHHHHH”, the “soluble on expression in E. coli” value is reported as “soluble”.
For “MLAIFHEAFAHPPEELNSPASEKCSKQPKLPEETLNDFLLRYPLNTFSMSFGQAAVLAYVRPSASFSIHQRLFCGFDDIYCLFFGSLNNLCQLNKQYGLTKTTNEAMFVIEAYRTLRDRGPYPADQVVKDLDGSFSFVVYDSKAGSVFTALVLIHKISPRLLELNFNGSDGGVKLYWGIAADGSVVISDDLDVIKEGCAKSFAPFPTGCMFHSEGGLMSFEHPMNKIKAMPRVDSEGVLCGANFKVDVYNRVNSIPRRGSEANWSL”, the “soluble on expression in E. coli” value was “soluble”.
With “MSAVPFPLLRLPNSALQKSLKEMRLVEQLSLSLLSENTMQLVRRFNRGRYFATITVVDSICVHLWTARCGQLFFKIKPDQSIRAVNILKSDSIATKFTMPKIPGFTVKKWLEHISHVFFSDTGATLRWMSSVRNIEETCEILKEVKIARLAINPSTVQDCQMRRLLPAIKELIVSDSTVHGSIVHWNLEKLSVFSTTMTLDDLLLSNCSDIAIGRNSLSHKNRNIFMRQWINGSNPRLQYFAMLMGFNGVQQLENTLFENIKYTETTVQGASTYKEFEIEGRDGRTAKIKLNTELTSRYFAMNVIF” the “soluble on expression in E. coli” value was “not soluble”.
With “MERLHLSWEDLLRLVRRLAEALSGEPFDLVLGVARGGLIPTALLAQALGARNILTAAVMFYEGEEALPEPVFLQFPPDVLLFGKRVLVVDDVWDSGRTAFAVKARVRRAGGVPVVATLHFKPGRNRVPDRPDFYAEETAAWVVYPWALEAWPKG” the “soluble on expression in E. coli” value was “soluble”.
In the case of “SFQGADSQAGKSGSRSMKPPGGESSDLFGSPEEGISSSKPNRMASNIFGPTEEPKNIPKRTNPPGGKGSGIFDESTPVQTRQRLNPPGGKTSDIFGSPVTATAPLAHPNKPKDHVLLCEGEDSKSDLKAATDSTPRGEQSDKGSSKEVEHAKIPEPTPTVDSHEPRLGPRPRSHNKVLNPPGGKSSLSFY”, the “soluble on expression in E. coli” value is reported as “soluble”.
In the case of “YPFWAQQTYPETPREPTGRIVCANCHLAAKPTEVEVPQSVLPDTVFKAVVKIPYDTSVQQVGADGSKVGLNVGAVLMLPEGFKIAPEDRIPEELKEEIGDVYFQPYGEDKDNIVIVGPLPGEQYQEIVFPVLSPNPANDKNIHFGKYSVHVGGNRGRGQVYPTGEKSNNNLYSAAATGTISKIAKQEGEDGSVKYLVDIKTESGEVVSDTIPAGPELIVSEGQAVTAGDALTNNPNVGGFGQLDAEIVLQDANR”, the “soluble on expression in E. coli” value is reported as “soluble”.
With “MPPKQQGPSKKSEQKRKEKVIEDKTFGLKNKKGNKNQKFVAQVENQVRNNNTRMDLVRQQEAAKKKEKDELLDIANLLKPVEQKVAKDVDPKSLLCVFFKQGLCGKGAKCKFSHDLAVAQKTAKKNLYADSREVEKDEETNENWDSDKLNEVVNKKNKNKHMIDIVSSFMTDIFKFKKLNFKVCKYFLEAVENNKYGWFWECPNGGEKCQYRHCLPEGYVLKKERKAMEQQKEDEISIEELVEKERAALSSKNLTKLTLQTFIAWKKKKLRERKEKEEADLKEKKEKIKSGKHNGMSGRDLFLYDANLVNNDDDEAGDIEMEKEEVDENEKVFEIDANFFKFDGMDDELTDQMSKSSTAVESTAKGMAKMDINEDLFDIDEDVENLDSDED” the “soluble on expression in E. coli” value was “soluble”.
With “GRRDNLIVGLDIGTTKICAIVGNVTEDGIDIVGIGTSPSRGMRKGVVINIESTVESIKKAVSEAELMAGCDIRSVYAGIAGGHIKGINSQGVIAIKNREVSSEDVKRVIDAAKAIAIPMDR” the “soluble on expression in E. coli” value was “not soluble”.
In the case of “MSLSRVEETGLGFVGTFESGFTQGTVGVGVDAIGMLGLKLDSGKGRAGTGLFPTGSDGRSQDDYSKGGGAVKFRISDTVLKVGDQFTALPVFATDDSRLLPEIAQGTLITSNEIEGLTLHAGHFTSLTAQEQTNRDSFGLKEANVVGGTYAFTDNLSTSLYYSKVEDYWRKYYANVNWALPISDNQGLVFDFNIYDTKSEGSAEYRAFDGDKLDNRAFSLSGAYNIGAHTFTLAYQKVTGDGDYGYGIDGGGTIFLANSVARSDFNAEDEKSWQARYDLNFAEYGIPGLTFMTRYVRGSDANVAGTSNGKEWERDVDIKYVLQEGPAKDLSFRVRQATYRSSDGVYYDSPSIDELRLIVEYPLNILEGHHHHHH”, the “soluble on expression in E. coli” value is reported as “soluble”.
With “MARSRGSSRPISRSRPTQTRSASTMAAPVHPQQQQQPNAYSHPPAAGAQTRQPGMFAQMASTAAGVAVGSTIGHTLGAGITGMFSGSGSDSAPVEQQQQNMANTSGQTQTDQQLGRTCEIDARNFTRCLDENNGNFQICDYYLQQLKACQEAARQY” the “soluble on expression in E. coli” value was “soluble”.
In the case of “MEYIPDNSDEGRIVAMTLAVALRRALASVLGVSATELGYAVRPVRLDNEQSVLAVQLYDIISGGAGFASSAPLHIEAVLKGMVKQLGCRHCDTACSECLLDSQTRHDHDQLDRKAAQAWLGEDFSHYIGLPEAEKLEHHHHHH”, the “soluble on expression in E. coli” value is reported as “not soluble”.
